One data set deals with T1, SpNOX (Streptococcus pneumoniae, UniProt Q8CZ28).
T1 construct: gene spr0531; full-length membrane protein, codon-optimized synthetic gene, N-terminal His tag (pQLink N), E. coli BL21(DE3) pLysS, purified in MNG detergent; bis-His heme ligands H69, H83, H129, H142
T1 sequence (Q8CZ28 1-400): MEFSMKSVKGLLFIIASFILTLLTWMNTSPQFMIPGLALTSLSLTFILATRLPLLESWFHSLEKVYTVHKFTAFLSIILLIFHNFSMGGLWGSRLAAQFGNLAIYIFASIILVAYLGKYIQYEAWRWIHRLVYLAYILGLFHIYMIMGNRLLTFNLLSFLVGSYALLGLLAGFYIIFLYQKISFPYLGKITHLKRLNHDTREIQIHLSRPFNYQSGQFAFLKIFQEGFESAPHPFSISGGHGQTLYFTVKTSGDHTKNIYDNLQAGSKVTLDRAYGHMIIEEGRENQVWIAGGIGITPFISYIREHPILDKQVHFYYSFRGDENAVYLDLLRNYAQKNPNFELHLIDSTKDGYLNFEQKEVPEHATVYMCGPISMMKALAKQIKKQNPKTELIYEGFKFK
Description: cytochrome c reduction, absorbance at […] nm. The format is biochemical. As to conditions: read-out: 50% inhibitory concentration.

Data set [1] has as its system Cc1cc2nc3c(=O)[nH]c(=O)nc-3n(C[C@H](O)[C@H](O)[C@H](O)COP(=O)(O)OP(=O)(O)OC[C@H]3O[C@@H](n4cnc5c(N)ncnc54)[C@H](O)[C@@H]3O)c2cc1C. Description: purified protein. The format is biochemical, Streptococcus pneumoniae. As to conditions: 200 µM NADPH; cytochrome c 100 µM; Figure 3E; varied: cofactor.
The subject of data set [2] is NC(=O)C1=CN([C@@H]2O[C@H](COP(=O)(O)OP(=O)(O)OC[C@H]3O[C@@H](n4cnc5c(N)ncnc54)[C@H](OP(=O)(O)O)[C@@H]3O)[C@@H](O)[C@H]2O)C=CC1. Description: purified protein. The data set is classed as biochemical, Streptococcus pneumoniae. The conditions noted are these: 10 µM FAD; cytochrome c 100 µM; Figure 3D.

pIC50: −log10 of the molar value.

In the case of `c1ccc2c(c1)[I+]c1ccccc1-2` [DPI], on SpNOX, the pIC50 was roughly 5.30.
As to SpNOX (Streptococcus pneumoniae R6), the Km in data set [1] came to 0.13 µM; in data set [2] it was 8 µM.

As usually defined, the Km is the concentration of substrate that gives half-maximal velocity.

These data come from article PMC5676040, “The NOX Family of Proteins Is Also Present in Bacteria” (mBio, 2017).
